Consider 1 substance from publication doi:10.1101/2021.09.20.461090.

The target in this assay is extended E34 TSP (E34 phage tailspike protein with the N-terminal 43 amino acid fusion peptide) (E34 phage). Kind of assay: SDS-PAGE of unheated against unfolded samples.

For orientation: stoichiometry N means a count of units in the complex or per binding partner. “extended E34 TSP (E34 phage tailspike protein with the N-terminal 43 amino acid fusion peptide) (natural protein)” returned a stoichiometry N of 3.
